# Reference: patent US11426447B2, “Neuregulin for the treatment of tumors of the nervous system” (LEIBNIZ-INSTITUT FUR …, priority 2016, dated 2022)
# Experiments:
# [1] = test system: pre-existing schwannomas; assay: rhNRG1 treatment of pre-existing schwannomas: maximum sciatic nerve diameter; format: in vivo, Nf2flox;P0-Cre;Nefh-Cre mutant mice; conditions: 3 months untreated, then 3 months systemic rhNRG1, vs vehicle
# From the text: A, Schematic representation of the protocol used to assess the efficacy of rhNRG1 treatment on pre-existing schwannomas. B, Quantification of maximum sciatic nerve diameters 3 and 6 months after nerve crush injury. Nf2flox;P0-Cre;Nefh-Cre mutant mice received either saline injections (vehicle) or intraperitoneal administration of rhNRH1 (** P<0.01 for differences between vehicle and rhNRG1-treated animals; n=6 animals per genotype; mean±SEM).
# Three months after crush injury the right sciatic nerve of all animals was exposed surgically in order to assess sciatic nerve diameter as indicator for tumour size. Documentation was performed by video-assisted microscopy for each animal. Selected frames from the video files (using VirtualDub 1.6.19 software) were used to determine sciatic nerve diameter using ImageJ.
# Two cohorts of animals underwent crush injury-induced schwannoma induction at the right sciatic nerve as described above (FIG. 5A). […] Then knockout animals (Nf2flox;P0-Cre;Nefh-Cre mutant animals) received either systemic rhNRG1 treatment or vehicle control applications for three months (FIG. 5A). […] (FIG. 5B)
# [2] = test system: Schwann cell differentiation markers in crushed sciatic nerves; assay: Immunoblot of sciatic nerve lysates after 3 months of treatment; format: in vivo, Nf2flox;P0-Cre;Nefh-Cre mice
# Protocol: Immunoblotting was performed as described in (Morrison et al., 2001). The following primary antibodies were used: phospho-c-Jun (Ser73; 1:1000; Cell Signalling; 8752), anti-Nrg1 (1:250; Santa Cruz; clone C-20), anti-Erk (1:500; Cell Signalling), anti-phospho-Erk (T202/Y204; 1:500; Cell Signalling), anti-ErbB2 (1:500; Cell Signalling), anti-GAPDH (1:1000; Santa Cruz; 6C5), anti-merlin (1:500; Santa Cruz; A19). Western blot results were quantified using Gel analysis software by ImageJ. Density values were normalized to actin and appropriate controls of transfection or wild-type tissue, respectively. In case of phospho-specific detection of proteins, their acquired densities were referred to signals derived from related pan-antibodies (e.g. phospho-Erk to Erk signals).
# Sciatic nerve crush injury was performed on WT and Nf2flox;P0-Cre;Nefh-Cre mutant animals as described in Example 1. The Nf2flox;P0-Cre;Nefh-Cre mutant animals were intraperitoneally injected every day with 10 μg of rhNRG1 per kg body weight (KO rhNRG1). For a control a PBS solution was systemically administered to WT animals and Nf2flox;P0-Cre;Nefh-Cre mutant animals (WT vehicle and KO vehicle). Sciatic nerve lysates were taken from animals after 3 month of treatment upon which immunochemistry was performed as described in Example 1.
# [3] = test system: neurofibromas; assay: Quantification of tumors in Nf1flox;Postn-Cre mice; format: in vivo; conditions: intraperitoneal rhNRG1 for three months, vs saline
# From the text: PFA-fixed tissue blocks derived from rhNRG1 and control treated animals containing lower spinal cord, lumbar dorsal root ganglions (DRG) as well as distal nerve proportions were cut in 4 planes per animal. Photographs were subsequently scanned and analyzed using the NanoZoomer Digital Pathology Software. The total area occupied by peripheral nerve tissue and dorsal root ganglion (DRG) tissue in mm^2 was quantified separately. Likewise, neoplastic tissue regions were identified and quantified separately for peripheral nerves and DRG areas. All quantitative analyses of tumorlets in Nf2flox;Postn-Cre mice were performed in blinded manner.
# Another closely related but not similar entity of Schwann cell tumors are neurofibromas. As opposed to schwannomas, Schwann cells represent the primary neoplastic cell component of neurofibromas (Stemmer-Rachamimov et al., 2004; Rodriguez et al., 2012), but also incorporate a mixture of non-neoplastic components, including axons, perineurial cells, fibroblasts and inflammatory cells. In order to test a possible effect of rhNRG1 treatment on these tumors, which are a typical manifestation of the hereditary disease Neurofibromatosis type 1 (NF1), 4-month-old mutant Nf1flox;Postn-Cre animals as well as wildtype littermates were either treated with saline control injections or intraperitoneal rhNRG1 administration for three months (FIG. 9A). […]
# [4] = test system: ErbB2 and myelin protein zero (MPZ) expression; assay: Immunoblot of nerve tissue from Nf1flox;Postn-Cre mice; format: in vivo; conditions: rhNRG1 over 3 months
# From the text: A, Study protocol used to assess the efficacy of systemic rhNRG1 treatment on schwannoma growth in Nf1flox;Postn-Cre animals. B, Representative longitudinal nerve section from six-month-old mutant Nf1flox;Postn-Cre mice indicating a circumscribed area of neurofibroma growth. Scale bars represent 50 μm. C, Fraction of tumor tissue within total tissue was quantified as area covered by tumor in relation to the total nerve area in investigated nerve sections. Nf1flox;Postn-Cre mutant mice receiving intraperitoneal saline injections (KO vehicle ip) were compared to mutants on rhNRG1 injections (KO rhNRG1 ip; n=6 animals per genotype; mean±SEM). D, Immunoblot of pooled tissue from at least three different animals prepared from sciatic nerves, brachial nerves, trigeminal nerves and dorsal root ganglions (DRG). Nf1flox;Postn-Cre mutant animals received either vehicle control injections (KO vehicle ip) or rhNRG1 treatment (KO rhNRG1 ip) over 3 months. Immunostaining for ErbB2, Akt, phospho-Akt (pAkt), c-Jun, Erk1/2, phospho-Erk1/2 (pErk1/2), myelin protein zero (MPZ), myelin basic protein (MBP) and GAPDH as loading control (n=3).
# Immunoblotting was performed as described in (Morrison et al., 2001). […] Western blot results were quantified using Gel analysis software by ImageJ. […]
# [5] = test system: intact nerves; assay: Morphometric analysis of nerve sections: myelin thickness of non-crushed, intact nerves; format: in vivo, wildtype mice; conditions: long-term treatment over 8 weeks, vs PBS control
# Protocol: Analysis of axon calibre, myelination thickness and solidity factor was conducted on semi-thin and ultra-thin sections of the sciatic nerve removed from transcardially perfused mice. Mice were perfused with a solution containing 3% paraformaldehyde and 3% glutaraldehyde in 0.1 M phosphate buffer (pH 7.4). Sections were postfixed for 1 h and kept in fixative including 3% sucrose. Sections were obtained from the distal part of the sciatic nerve. Sectioning and staining were performed as described. Images of toluidine blue-stained semi-thin sections were taken using an Axioskop 2 MOT (Carl Zeiss, Germany) equipped with a 100× immersion oil objective and an Olympus XC50 digital camera (Olympus, Germany). Standardized settings for camera sensitivity, resolution (2,576×1,932 pixels) and brightness of illumination were used for all micrographs. Ultra-thin sections were analysed with an electron microscope (EM910, Carl Zeiss) equipped with an integrated TRS 1K digital camera (Carl Zeiss). Image analysis was conducted with ImageJ version 1.48u. RGB colour images obtained from semi-thin sections were split into single channels and the green channel was chosen for measurements. The image was contrasted using the auto function. Axon and myelin were circumscribed manually by the freehand selection tool. Based on the measured areas, the thicknesses of the axons and myelin sheaths were calculated. […]
molecule,measurement,setting,value
"rhNRG1: EGF domain containing 7 kDa protein of recombinant human Neuregulin 1, purchased from Reprokine (#RKQ02297) (protein, listed as Homo sapiens) SHLVKCAEKEKTFCVNGGECFMVKDLSNPSRYLCKCPNEFTGDRCQNYVMASFYKHLGIEF",tumor size (maximum sciatic nerve diameter),[1],markedly smaller
same,21.5-kDa MBP isoform expression (immunoblot),[2]; KO rhNRG1,strong up-regulation
same,myelin protein zero (MPZ) expression (immunoblot),"[2]; KO rhNRG1, 3 months of treatment, vs wildtype",reduced expression
same,17 kDa myelin basic protein (MBP) isoform expression (immunoblot),[2]; KO rhNRG1 vs wildtype littermates,remarkable reduced expression
same,c-Jun levels (marker for undifferentiated Schwann cells),"[2]; knockout animals, systemic rhNRG1 injections",reduced
same,ErbB2 expression (immunoblot),"[2]; rhNRG1-treated knockout mice, high in vehicle-treated knockout",normal expression
same,macrophage number in nerve tissue (Iba-1 immunoblot),[2]; systemic rhNRG1 treatment,not influenced
same,neurofibromas from distal parts of the nervous system (tumor fraction),[3],significant effect
same,ErbB2 expression (immunoblot),[4],reduced
same,myelin protein zero (MPZ) expression (immunoblot),[4],increased
same,"impact on the microarchitecture of intact nerves (myelin thickness, g-ratio)",[5],no obvious impact
